Source: IntAct's records for PubMed 20124439

B1: Glycosylphosphatidylinositol-anchored high density lipoprotein-binding protein 1 (Homo sapiens), Q8IV16 (parent)
chain: MKALGAVLLALLLFGRPGRGQTQQEEEEEDEDHGPDDYDEEDEDEVEEEETNRLPGGRSRVLLRCYTCKSLPRDERCNLTQNCSHGQTCTTLIAHGNTESGLLTTHSTWCTDSCQPITKTVEGTQVTMTCCQSSLCNVPPWQSSRVQDPTGKGAGGPRGSSETVGAALLLNLLAGLGAMGARRP
partner: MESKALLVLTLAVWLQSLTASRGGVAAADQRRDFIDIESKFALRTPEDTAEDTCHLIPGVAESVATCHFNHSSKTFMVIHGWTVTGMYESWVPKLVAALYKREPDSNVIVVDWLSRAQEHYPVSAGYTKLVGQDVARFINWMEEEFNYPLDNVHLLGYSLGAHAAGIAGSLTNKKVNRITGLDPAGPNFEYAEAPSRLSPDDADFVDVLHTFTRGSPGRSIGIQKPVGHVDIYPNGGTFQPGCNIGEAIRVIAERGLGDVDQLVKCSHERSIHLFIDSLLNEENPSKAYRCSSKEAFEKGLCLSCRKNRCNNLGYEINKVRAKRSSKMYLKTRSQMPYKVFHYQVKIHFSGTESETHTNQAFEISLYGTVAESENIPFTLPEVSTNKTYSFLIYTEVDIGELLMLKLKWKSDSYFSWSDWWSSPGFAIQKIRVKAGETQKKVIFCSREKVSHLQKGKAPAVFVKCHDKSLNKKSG

Variants of: B1
Conditions: with lipl_human LPL

| effect of a mutation on the interaction | Variant |
| --- | --- |
| decreasing interaction | MKALGAVLLALLLFGRPGRGQTQQEEEEEDEDHGPDDYDEEDEDEVEEEETNRLPGGRSRVLLRYYTCKSLPRDERCNLTQNCSHGQTCTTLIAHGNTESGLLTTHSTWCTDSCQPITKTVEGTQVTMTCCQSSLCNVPPWQSSRVQDPTGKGAGGPRGSSETVGAALLLNLLAGLGAMGARRP |
| decreasing interaction | MKALGAVLLALLLFGRPGRGQTQQEEEEEDEDHGPDDYDEEDEDEVEEEETNRLPGGRSRVLLRCYTCKSLPRDERCNLTQNCSHGQTCTTLIAHGNTESGLLTTHSTWCTDSCPPITKTVEGTQVTMTCCQSSLCNVPPWQSSRVQDPTGKGAGGPRGSSETVGAALLLNLLAGLGAMGARRP |
